Experimental data: article PMC9482650, “Quantitative fragmentomics allow affinity mapping of interactomes” (Nature Communications, 2022)

T1: APBA2_1, Q99767
T1 sequence (Q99767 563-664, limits assumed, looked up): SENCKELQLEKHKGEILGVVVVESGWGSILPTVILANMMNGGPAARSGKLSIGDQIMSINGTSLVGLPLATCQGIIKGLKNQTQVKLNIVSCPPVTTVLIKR

T2: APBA3_1, O96018
T2 sequence (O96018 389-490, limits assumed, looked up): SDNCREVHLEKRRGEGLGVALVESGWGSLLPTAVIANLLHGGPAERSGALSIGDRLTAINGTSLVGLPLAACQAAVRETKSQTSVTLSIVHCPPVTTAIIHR

T3: ARHGEF11, O15085
T3 sequence (O15085 42-136, limits assumed, looked up): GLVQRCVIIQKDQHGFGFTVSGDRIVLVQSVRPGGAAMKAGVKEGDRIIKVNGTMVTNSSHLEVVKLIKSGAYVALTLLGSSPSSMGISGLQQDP

T4: CARD11, Q9BXL7
T4 sequence (Q9BXL7 662-765, limits assumed, looked up): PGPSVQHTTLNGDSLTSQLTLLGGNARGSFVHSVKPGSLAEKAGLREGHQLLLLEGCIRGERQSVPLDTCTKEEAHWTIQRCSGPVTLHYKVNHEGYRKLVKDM

T5: FRMPD1, Q5SYB0
T5 sequence (Q5SYB0 52-145, limits assumed, looked up): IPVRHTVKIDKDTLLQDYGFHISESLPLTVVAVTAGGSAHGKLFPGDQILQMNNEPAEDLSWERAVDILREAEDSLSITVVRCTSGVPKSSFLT

T6: HTRA3, P83110
T6 sequence (P83110 354-453, limits assumed, looked up): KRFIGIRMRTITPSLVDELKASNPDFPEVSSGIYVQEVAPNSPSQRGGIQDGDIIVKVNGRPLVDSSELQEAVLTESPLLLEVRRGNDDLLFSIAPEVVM

T7: MPP6, Q9NZW5
T7 sequence (Q9NZW5 125-219, limits assumed, looked up): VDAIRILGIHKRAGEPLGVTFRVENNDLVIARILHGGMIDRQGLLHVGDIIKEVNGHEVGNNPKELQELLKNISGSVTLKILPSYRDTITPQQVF

T8: MPP7, Q5T2T1
T8 sequence (Q5T2T1 134-230, limits assumed, looked up): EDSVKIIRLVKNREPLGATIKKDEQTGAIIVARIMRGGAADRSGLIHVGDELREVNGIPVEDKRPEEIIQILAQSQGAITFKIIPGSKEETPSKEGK

T9: NHERF3_4, Q5T2W1
T9 sequence (Q5T2W1 373-468, limits assumed, looked up): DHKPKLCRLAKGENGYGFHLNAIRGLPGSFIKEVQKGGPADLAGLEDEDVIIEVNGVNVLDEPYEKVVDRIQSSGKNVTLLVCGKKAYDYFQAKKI

T10: PDZD7_3, Q9H5P4
T10 sequence (Q9H5P4 857-944, limits assumed, looked up): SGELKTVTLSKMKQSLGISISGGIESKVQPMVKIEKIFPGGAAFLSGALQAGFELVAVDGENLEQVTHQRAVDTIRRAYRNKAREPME

T11: RHPN1, Q8TCX5
T11 sequence (Q8TCX5 508-602, limits assumed, looked up): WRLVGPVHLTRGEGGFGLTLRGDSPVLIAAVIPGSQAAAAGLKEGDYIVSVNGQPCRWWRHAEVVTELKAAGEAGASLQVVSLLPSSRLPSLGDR

T12: SNTA1, Q13424
T12 sequence (Q13424 82-180, limits assumed, looked up): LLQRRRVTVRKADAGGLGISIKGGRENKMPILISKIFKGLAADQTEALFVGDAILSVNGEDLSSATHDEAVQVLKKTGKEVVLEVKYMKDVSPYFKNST

T13: SNTG1, Q9NSN8
T13 sequence (Q9NSN8 52-150, limits assumed, looked up): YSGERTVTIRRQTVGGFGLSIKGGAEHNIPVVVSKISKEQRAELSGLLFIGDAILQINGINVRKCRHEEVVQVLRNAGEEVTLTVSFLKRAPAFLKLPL

T14: TJP3_3, O95049
T14 sequence (O95049 375-456, limits assumed, looked up): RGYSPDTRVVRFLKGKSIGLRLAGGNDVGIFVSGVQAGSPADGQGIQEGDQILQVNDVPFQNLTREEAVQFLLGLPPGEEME

T15: TX1BP3, O14907
T15 sequence (O14907 10-122, limits assumed, looked up): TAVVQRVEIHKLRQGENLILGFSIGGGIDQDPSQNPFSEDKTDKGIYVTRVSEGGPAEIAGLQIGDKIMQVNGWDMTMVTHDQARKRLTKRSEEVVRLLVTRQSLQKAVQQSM


biological target: T1, APBA2_1, Q99767; experiment: holdup assay; details: plain residues with an end cap or a label only (N-terminal biotin on a linker: (peg)3)

Row | Binder | pKd
1 | QQSMSSADSTQA [SARS-Cov2-N, P0DTC9] | below the threshold

biological target: T2, APBA3_1, O96018; experiment: holdup assay; details: plain residues with an end cap or a label only (N-terminal biotin on a linker: (peg)3)

Row | Binder | pKd
2 | QQSMSSADSTQA [SARS-Cov2-N, P0DTC9] | below the threshold

biological target: T3, ARHGEF11, O15085; experiment: holdup assay; details: plain residues with an end cap or a label only (N-terminal biotin on a linker: (peg)3)

Row | Binder | pKd
3 | QQSMSSADSTQA [SARS-Cov2-N, P0DTC9] | below the threshold

biological target: T4, CARD11, Q9BXL7; experiment: holdup assay; details: plain residues with an end cap or a label only (N-terminal biotin on a linker: (peg)3)

Row | Binder | pKd
4 | QQSMSSADSTQA [SARS-Cov2-N, P0DTC9] | below the threshold

biological target: CASK, O14936; experiment: holdup assay; details: plain residues with an end cap or a label only (N-terminal biotin on a linker: (peg)3)
Sequence (O14936 487-570): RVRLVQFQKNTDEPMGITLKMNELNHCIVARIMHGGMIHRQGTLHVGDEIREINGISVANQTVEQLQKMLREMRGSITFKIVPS

Row | Binder | pKd
5 | QQSMSSADSTQA [SARS-Cov2-N, P0DTC9] | below the threshold

biological target: T5, FRMPD1, Q5SYB0; experiment: holdup assay; details: plain residues with an end cap or a label only (N-terminal biotin on a linker: (peg)3)

Row | Binder | pKd
6 | QQSMSSADSTQA [SARS-Cov2-N, P0DTC9] | below the threshold

biological target: FRMPD2_1, Q68DX3; experiment: holdup assay; details: plain residues with an end cap or a label only (N-terminal biotin on a linker: (peg)3)
Sequence (Q68DX3 770-861): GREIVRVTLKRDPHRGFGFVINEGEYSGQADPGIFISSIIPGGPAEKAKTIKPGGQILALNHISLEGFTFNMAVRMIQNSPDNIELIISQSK

Row | Binder | pKd
7 | QQSMSSADSTQA [SARS-Cov2-N, P0DTC9] | below the threshold

biological target: GRIP2_4, Q9C0E4; experiment: holdup assay; details: plain residues with an end cap or a label only (N-terminal biotin on a linker: (peg)3)
Sequence (Q9C0E4 446-548): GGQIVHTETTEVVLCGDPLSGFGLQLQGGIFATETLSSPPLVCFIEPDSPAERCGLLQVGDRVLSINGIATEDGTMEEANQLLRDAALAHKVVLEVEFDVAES

Row | Binder | pKd
8 | QQSMSSADSTQA [SARS-Cov2-N, P0DTC9] | below the threshold

biological target: GRIP2_7, Q9C0E4; experiment: holdup assay; details: plain residues with an end cap or a label only (N-terminal biotin on a linker: (peg)3)
Sequence (Q9C0E4 934-1023): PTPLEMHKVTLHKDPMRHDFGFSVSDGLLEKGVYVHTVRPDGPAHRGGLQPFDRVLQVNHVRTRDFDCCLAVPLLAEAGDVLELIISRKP

Row | Binder | pKd
9 | QQSMSSADSTQA [SARS-Cov2-N, P0DTC9] | below the threshold

biological target: T6, HTRA3, P83110; experiment: holdup assay; details: plain residues with an end cap or a label only (N-terminal biotin on a linker: (peg)3)

Row | Binder | pKd
10 | QQSMSSADSTQA [SARS-Cov2-N, P0DTC9] | below the threshold

biological target: MAGI1_1, Q96QZ7; experiment: holdup assay; details: plain residues with an end cap or a label only (N-terminal biotin on a linker: (peg)3)
Sequence (Q96QZ7 1-106): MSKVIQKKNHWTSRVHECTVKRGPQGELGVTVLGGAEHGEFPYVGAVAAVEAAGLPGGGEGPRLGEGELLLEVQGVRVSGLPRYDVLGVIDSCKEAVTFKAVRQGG

Row | Binder | pKd
11 | QQSMSSADSTQA [SARS-Cov2-N, P0DTC9] | below the threshold

biological target: MAGI2_6, Q86UL8; experiment: holdup assay; details: plain residues with an end cap or a label only (N-terminal biotin on a linker: (peg)3)
Sequence (Q86UL8 1141-1229): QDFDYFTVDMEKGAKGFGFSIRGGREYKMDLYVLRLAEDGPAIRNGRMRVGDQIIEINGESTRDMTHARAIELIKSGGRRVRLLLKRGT

Row | Binder | pKd
12 | QQSMSSADSTQA [SARS-Cov2-N, P0DTC9] | below the threshold

biological target: T7, MPP6, Q9NZW5; experiment: holdup assay; details: plain residues with an end cap or a label only (N-terminal biotin on a linker: (peg)3)

Row | Binder | pKd
13 | QQSMSSADSTQA [SARS-Cov2-N, P0DTC9] | below the threshold

biological target: T8, MPP7, Q5T2T1; experiment: holdup assay; details: plain residues with an end cap or a label only (N-terminal biotin on a linker: (peg)3)

Row | Binder | pKd
14 | QQSMSSADSTQA [SARS-Cov2-N, P0DTC9] | below the threshold

biological target: T9, NHERF3_4, Q5T2W1; experiment: holdup assay; details: plain residues with an end cap or a label only (N-terminal biotin on a linker: (peg)3)

Row | Binder | pKd
15 | QQSMSSADSTQA [SARS-Cov2-N, P0DTC9] | below the threshold

biological target: T10, PDZD7_3, Q9H5P4; experiment: holdup assay; details: plain residues with an end cap or a label only (N-terminal biotin on a linker: (peg)3)

Row | Binder | pKd
16 | QQSMSSADSTQA [SARS-Cov2-N, P0DTC9] | below the threshold

biological target: T11, RHPN1, Q8TCX5; experiment: holdup assay; details: plain residues with an end cap or a label only (N-terminal biotin on a linker: (peg)3)

Row | Binder | pKd
17 | QQSMSSADSTQA [SARS-Cov2-N, P0DTC9] | below the threshold

biological target: T12, SNTA1, Q13424; experiment: holdup assay; details: plain residues with an end cap or a label only (N-terminal biotin on a linker: (peg)3)

Row | Binder | pKd
18 | QQSMSSADSTQA [SARS-Cov2-N, P0DTC9] | below the threshold

biological target: T13, SNTG1, Q9NSN8; experiment: holdup assay; details: plain residues with an end cap or a label only (N-terminal biotin on a linker: (peg)3)

Row | Binder | pKd
19 | QQSMSSADSTQA [SARS-Cov2-N, P0DTC9] | below the threshold

biological target: TJP1_2, Q07157; experiment: holdup assay; details: plain residues with an end cap or a label only (N-terminal biotin on a linker: (peg)3)
Sequence (Q07157 181-274): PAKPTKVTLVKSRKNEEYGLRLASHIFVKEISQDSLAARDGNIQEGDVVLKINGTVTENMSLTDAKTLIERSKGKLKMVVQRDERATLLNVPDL

Row | Binder | pKd
20 | QQSMSSADSTQA [SARS-Cov2-N, P0DTC9] | below the threshold

biological target: T14, TJP3_3, O95049; experiment: holdup assay; details: plain residues with an end cap or a label only (N-terminal biotin on a linker: (peg)3)

Row | Binder | pKd
21 | QQSMSSADSTQA [SARS-Cov2-N, P0DTC9] | below the threshold

biological target: T15, TX1BP3, O14907; experiment: holdup assay; details: plain residues with an end cap or a label only (N-terminal biotin on a linker: (peg)3)

Row | Binder | pKd
22 | QQSMSSADSTQA [SARS-Cov2-N, P0DTC9] | below the threshold
